Data as given in paper PMC10924156, “Design, Preclinical Evaluation, and Clinical Translation of ^68Ga-FAPI-LM3, a Heterobivalent Molecule for PET Imaging of Nasopharyngeal Carcinoma” (Journal of Nuclear Medicine, 2024).
Starred links: 1 amine or outer side, 2 acyl side, 3 side chain; linkers in the order of their positions; H or OH if unused. Positions of bridges follow the written chain, without caps; N, C: chain ends. Non-standard residues stand in square brackets, D forms with d. Residues, ends and D or L forms follow the SMILES beside them. *: point of attachment. X1 = CN(CCCN1CCN(*)CC1)c1ccc2nccc(C(=O)NCC(=O)N3CC(F)(F)C[C@H]3C#N)c2c1; DOTA = O=C(O)CN1CCN(CC(=O)O)CCN(CC(=O)*)CCN(CC(=O)O)CC1; dPhe(4-NHCONH2) = NC(=O)Nc1ccc(C[C@@H](N)C(=O)O)cc1; Phe(4-Cl) = N[C@@H](Cc1ccc(Cl)cc1)C(=O)O; Suc = O=C(CCC(=O)[*:2])[*:1]; AEEEA = NCCOCCOCCOCC(=O)O

Key:
in vivo [1] = conditions: BALB/c nude, mouse, 1.48 MBq, total radioactivity
Method: (§1) Tumor-bearing mice (3/group) were intravenously injected with approximately 7.4 MBq of ^68Ga-FAPI-LM3, ^68Ga-FAPI-46, or ^68Ga-DOTA-LM3. Subsequent static PET scans were obtained at intervals of 0.5, 1, 2, and 4 h after injection using an Inveon small-animal PET scanner (Siemens). In the blocking experiment, approximately 60 nmol of the unlabeled precursor (FAPI-46, DOTA-LM3, or FAPI-46 plus DOTA-LM3) were simultaneously injected with ^68Ga-FAPI-LM3. The PET images were reconstructed iteratively using 3-dimensional OpMAP 256 (PET reconstruction protocol [.pPetRcn]; Siemens Healthineers AG) and converted to percentage injected dose per gram of tissue (%ID/g) by delineating the regions of interest. For the biodistribution studies, approximately 1.48 MBq of ^68Ga-FAPI-LM3, ^68Ga-FAPI-46, ^68Ga-DOTA-LM3, or ^68Ga-FAPI-LM3 with unlabeled precursor were injected into tumor-bearing mice (3/group), and different groups of mice were euthanized at the scheduled time points after injection.

in vitro = in vitro ADME, bovine; conditions: serum
Method: Information regarding the reagents, chemicals, high-performance liquid chromatography, liquid chromatography–mass spectrometry, and flow diagram of the synthesis of FAPI-LM3 are provided in the supplemental materials (available at http://jnm.snmjournals.org ([16])). The radiolabeling of FAPI-46, DOTA-LM3, and FAPI-LM3 precursors with ^68Ga was performed following similar procedures. In brief, 25 nmol of the precursor in 1 mL of sodium acetate buffer (0.25 M, pH 8.2–8.3) was allowed to react with 4 mL of ^68Ga solution (1.3 GBq in 0.6 M HCl) at 100°C for 15 min. For clinical imaging, the final product was passed through a 0.22-μm Millipore filter for sterilization in each ^68Ga-FAPI-LM3 preparation process. The stability of ^68Ga-FAPI-LM3 was determined by incubating the product in phosphate-buffered saline and fetal bovine serum at 37°C and analyzing it via radio–high-performance liquid chromatography after 1 and 2 h of incubation.

[2] = tested on: HT-1080-FAP, HT-1080-SSTR2, HT-1080-FAP–plus–HT-1080-SSTR2, C666-1, U87MG cells; assay: Cellular uptake test and blocking experiments; format: cell-based, human; conditions: 60 min, with 10 nmol unlabeled FAPI-46, DOTA-LM3 or both; all P < 0.05
Method: Information on cell resources, transfection, and culture is provided in the supplemental materials. For in vitro studies, the cells were seeded in 24-well plates and cultured in a routine medium until they reached approximately 80% confluence. During the experiment, the medium was replaced with a fetal bovine serum–free medium. […] After a 60-min incubation period, the free tracer was removed using phosphate-buffered saline before measurement. The cells were lysed with 0.5 mL of 1 M NaOH, and radioactivity was subsequently gauged using a γ-counter (Wizard 2480; PerkinElmer Inc.).

[3] = tested on: HT-1080-FAP–plus–HT-1080-SSTR2 xenografts; conditions: mouse
Method: as §1

in vivo [4] = conditions: BALB/c nude, mouse, iv, 7.4 MBq, total radioactivity, tumor uptake (PET)
Method: as §1

[5] = human, in vivo
clinical = conditions: human, in vivo, total radioactivity; for SUV: Median SUVmax; for SUV at 1 h: SUVmax
[6] = tested on: HT-1080-FAP–plus–HT-1080-SSTR2 tumor xenograft; assay: Small-animal PET imaging; conditions: 1 h after injection
Method: as §1

[7] = tested on: nasopharyngeal carcinoma lesions; conditions: human, in vivo
[8] = Ex vivo biodistribution study; conditions: BALB/c nude, mouse, tumor (HT-1080-FAP plus HT-1080-SSTR2 xenograft), 1.48 MBq, total radioactivity
Method: as §1

[9] = set-up: method as in 2 sources, ref 21 = [21]; PMID 30072500; doi:10.2967/jnumed.118.215913; 21. Giesel FL Kratochwil C Lindner T . 68 Ga-FAPI PET/CT: biodistribution and preliminary dosimetry estimate of 2 DOTA-containing FAP-targeting agents in patients with various cancers . J Nucl Med. 20 ||| ref 15 = [15]; PMID 33579804; doi:10.2967/jnumed.120.253096; 15. Zhu W Cheng Y Jia R . A prospective, randomized, double-blind study to evaluate the safety, biodistribution, and dosimetry of 68 Ga-NODAGA-LM3 and 68 Ga-DOTA-LM3 in patients with well-differentiat; conditions: in vivo; cited from earlier work
Small-animal PET imaging = conditions: BALB/c nude, mouse, tumor (HT-1080-FAP plus HT-1080-SSTR2 xenograft), iv, 7.4 MBq, total radioactivity, tumor uptake (PET), i.v. approx 7.4 MBq, 3 mice/group
Method: as §1

**Q.** For `C[C@@H](O)[C@@H]1NC(=O)[C@H](CCCCN)NC(=O)[C@@H](Cc2ccc(NC(N)=O)cc2)NC(=O)[C@H](Cc2ccc(O)cc2)NC(=O)[C@H](NC(=O)[C@H](Cc2ccc(Cl)cc2)NC(=O)[C@H](CCCCNC(=O)CN2CCN(CC(=O)O)CCN(CC(=O)O)CCN(CC(=O)O)CC2)NC(=O)CCC(=O)NCCOCCOCCOCC(=O)N2CCN(CCCN(C)c3ccc4nccc(C(=O)NCC(=O)N5CC(F)(F)C[C@H]5C#N)c4c3)CC2)CSSC[C@@H](C(=O)N[C@H](Cc2ccc(O)cc2)C(N)=O)NC1=O` [^68Ga-FAPI-LM3, metal not drawn] ({X1-AEEEA-Suc}-K(DOTA)[Phe(4-Cl)][dC]Y[dPhe(4-NHCONH2)]KTC[dY]-NH2; disulfide 3-8), which tissue uptake at 1 h (in vivo [1]) is on record?
**A.** The tissue uptake at 1 h was 14.8 ± 0.76 %ID/g.

**Q.** And the tissue uptake at 4 h (in vivo [1])?
**A.** The tissue uptake at 4 h was 17.7 ± 2.46 %ID/g.

**Q.** And the remaining at 2 h (in vitro)?
**A.** The remaining at 2 h was > 99%.

**Q.** And the “binding to FAP or SSTR2 with corresponding unlabeled agent” value [2]?
**A.** The value was “significantly blocked”.

**Q.** And the “uptake in blood (ex vivo biodistribution)” value [3]?
**A.** Its value is “high”.

**Q.** What about the tissue uptake at 0.5 h (in vivo [4]) of the same compound?
**A.** Its tissue uptake at 0.5 h is 14 ± 0.47 %ID/g.

**Q.** And the tissue uptake at 1 h (in vivo [4])?
**A.** The tissue uptake at 1 h was 14.4 ± 0.67 %ID/g.

**Q.** What about the tissue uptake at 2 h (in vivo [4]) of the same compound?
**A.** The tissue uptake at 2 h was 14.4 ± 0.68 %ID/g.

**Q.** What about the tissue uptake at 4 h (in vivo [4]) of the same compound?
**A.** Its tissue uptake at 4 h is 13.8 ± 0.68 %ID/g.

**Q.** What about the “Effective dose equivalent, Mean” value [5] of the same compound?
**A.** Its value is 1.20E–03 mSv/MBq.

**Q.** What about the “dosimetry, Adrenal glands, Mean” value [5] of the same compound?
**A.** Its value is 5.98E–05 mSv/MBq.

**Q.** What about the “dosimetry, Brain, Mean” value [5] of the same compound?
**A.** Its value is 1.63E–06 mSv/MBq.

**Q.** What about the “dosimetry, Breasts, Mean” value [5] of the same compound?
**A.** The value was 3.47E–05 mSv/MBq.

**Q.** And the “dosimetry, Kidneys, Mean” value [5]?
**A.** The value was 1.08E–04 mSv/MBq.

**Q.** What about the “dosimetry, LLI wall (lower large intestine), Mean” value [5] of the same compound?
**A.** Its value is 4.34E–04 mSv/MBq.

**Q.** And the “dosimetry, Liver, Mean” value [5]?
**A.** The value was 1.28E–03 mSv/MBq.

**Q.** What about the “dosimetry, Lungs, Mean” value [5] of the same compound?
**A.** The value was 7.68E–04 mSv/MBq.

**Q.** And the “dosimetry, Muscle, Mean” value [5]?
**A.** Its value is 1.57E–05 mSv/MBq.

**Q.** What about the “dosimetry, Osteogenic cells, Mean” value [5] of the same compound?
**A.** Its value is 4.22E–05 mSv/MBq.

**Q.** And the “dosimetry, Ovaries, Mean” value [5]?
**A.** Its value is 3.66E–04 mSv/MBq.

**Q.** What about the “dosimetry, Pancreas, Mean” value [5] of the same compound?
**A.** Its value is 1.23E–04 mSv/MBq.

**Q.** And the “dosimetry, Red marrow, Mean” value [5]?
**A.** The value was 7.62E–04 mSv/MBq.

**Q.** What about the “dosimetry, Skin, Mean” value [5] of the same compound?
**A.** The value was 6.29E–06 mSv/MBq.

**Q.** And the “dosimetry, Small intestine, Mean” value [5]?
**A.** The value was 2.71E–05 mSv/MBq.

**Q.** And the “dosimetry, Spleen, Mean” value [5]?
**A.** Its value is 1.23E–04 mSv/MBq.

**Q.** And the “dosimetry, Stomach wall, Mean” value [5]?
**A.** The value was 4.04E–04 mSv/MBq.

**Q.** What about the “dosimetry, Thyroid, Mean” value [5] of the same compound?
**A.** The value was 3.68E–06 mSv/MBq.

**Q.** What about the “dosimetry, ULI wall (upper large intestine), Mean” value [5] of the same compound?
**A.** Its value is 1.53E–05 mSv/MBq.

**Q.** What about the “dosimetry, Urinary bladder wall, Mean” value [5] of the same compound?
**A.** Its value is 2.14E–03 mSv/MBq.

**Q.** What about the “dosimetry, Uterus, Mean” value [5] of the same compound?
**A.** The value was 2.19E–04 mSv/MBq.

**Q.** And the SUV (clinical; Bone mets)?
**A.** The SUV was 11.2 SUV.

**Q.** What about the SUV (clinical; Distant LN mets) of the same compound?
**A.** Its SUV is 16.9 SUV.

**Q.** What about the SUV (clinical; Liver mets) of the same compound?
**A.** Its SUV is 16.5 SUV.

**Q.** What about the SUV (clinical; Peritoneal mets) of the same compound?
**A.** Its SUV is 13.1 SUV.

**Q.** And the SUV (clinical; Pleural mets)?
**A.** The SUV was 17.3 SUV.

**Q.** And the SUV (clinical; Primary)?
**A.** Its SUV is 13.8 SUV.

**Q.** What about the SUV (clinical; Regional LN mets) of the same compound?
**A.** Its SUV is 11.4 SUV.

**Q.** And the SUV (clinical; Total distant metastases)?
**A.** Its SUV is 14.6 SUV.

**Q.** And the SUV at 1 h (clinical; bone metastases)?
**A.** Its SUV at 1 h is 10.4 SUV.

**Q.** And the SUV at 1 h (clinical; distant lymph node metastases)?
**A.** Its SUV at 1 h is 14.5 SUV.

**Q.** What about the SUV at 1 h (clinical; liver metastases) of the same compound?
**A.** The SUV at 1 h was 14.3 SUV.

**Q.** What about the SUV at 1 h (clinical; regional lymph node metastases) of the same compound?
**A.** The SUV at 1 h was 10.1 SUV.

**Q.** What about the “blockade of tumor uptake” value ([6]; unlabeled DOTA-LM3) of the same compound?
**A.** Its value is 62%.

**Q.** And the “blockade of tumor uptake” value ([6]; unlabeled FAPI-46)?
**A.** Its value is 63%.

**Q.** And the “blockade of tumor uptake” value ([6]; unlabeled FAPI-46 plus DOTA-LM3)?
**A.** Its value is 93%.

**Q.** What about the “physiologic uptake in normal organs” value [7] of the same compound?
**A.** Its value is “intense physiologic uptake”.

**Q.** Which results are given for `C[C@@H](O)[C@@H]1NC(=O)[C@H](CCCCN)NC(=O)[C@@H](Cc2ccc(NC(N)=O)cc2)NC(=O)[C@H](Cc2ccc(O)cc2)NC(=O)[C@H](NC(=O)[C@H](Cc2ccc(Cl)cc2)NC(=O)CN2CCN(CC(=O)O)CCN(CC(=O)O)CCN(CC(=O)O)CC2)CSSC[C@@H](C(=O)N[C@H](Cc2ccc(O)cc2)C(N)=O)NC1=O` [^68Ga-DOTA-LM3, metal not drawn, reference compound] ({DOTA}-[Phe(4-Cl)][dC]Y[dPhe(4-NHCONH2)]KTC[dY]-NH2; disulfide 2-7)?
**A.** tissue uptake at 1 h [8]: 7.88 ± 1.1 %ID/g; effective dose [9]: 2.50 × 10^−2 mSv/MBq; tissue uptake at 1 h (Small-animal PET imaging; 1 h after injection): 5.93 ± 0.5 %ID/g; tissue uptake at 4 h (Small-animal PET imaging; 4 h after injection): 4.46 ± 0.57 %ID/g
